We go through 28 variants from publication PMC4624786.

B1: unnamed (parent)
chain 1: MSMPDAMPLPGVGEELKQAKEIEDAEKYSFMATVTKAPKKQIQFADDMQEFTKFPTKTGRRSLSRSISQSSTDSYSSAASYTDSSDDEVSPREKQQTNSKGSSNFCVKNIKQAEFGRREIEIAEQDMSALISLRKRAQGEKPLAGAKIVGCTHITAQTAVLIETLCALGAQCRWSACNIYSTQNEVAAALAEAGVAVFAWKGESEDDFWWCIDRCVNMDGWQANMILDDGGDLTHWVYKKYPNVFKKIRGIVEESVTGVHRLYQLSKAGKLCVPAMNVNDSVTKQKFDNLYCCRESILDGLKRTTDVMFGGKQVVVCGYGEVGKGCCAALKALGAIVYITEIDPICALQACMDGFRVVKLNEVIRQVDVVITCTGNKNVVTREHLDRMKNSCIVCNMGHSNTEIDVTSLRTPELTWERVRSQVDHVIWPDGKRVVLLAEGRLLNLSCSTVPTFVLSITATTQALALIELYNAPEGRYKQDVYLLPKKMDEYVASLHLPSFDAHLTELTDDQAKYLGLNKNGPFKPNYYRY
chain 2: MATPSNLGSSVLASKTKTKKKHFVAQKVKLFRASDPLLSVLMWGVNHSINELSHVQIPVMLMPDDFKAYSKIKVDNHLFNKENMPSHFKFKEYCPMVFRNLRERFGIDDQDFQNSLTRSAPLPNDSQARSGARFHTSYDKRYVIKTITSEDVAEMHNILKKYHQYIVECHGVTLLPQFLGMYRLNVDGVEIYVIVTRNVFSHRLSVYRKYDLKGSTVAREASDKEKAKELPTLKDNDFINEGQKIYIDDSNKKIFLEKLKKDVEFLAQLKLMDYSLLVGIHDVERAEQEEVECEENEGEEEGESDGAHPIGTPPDSPGNTLNSSPPLAPGEFDPNIDVYAIKCHENAPRKEVYFMAIIDILTHYDAKKKAAHAAKTVKHGAGAEISTVNPEQYSKRFLDFIGHILT
B2: unnamed (parent)
chain 1: B1 chain 1
chain 2: MASASSGPAAAGFSSLDAGAPAGTAAASGIKRATVSEGPSASVMPVKKIGHRSVDSSGETTYKKTTSSALKGAIQLGITHTVGSLSTKPERDVLMQDFYVVESIFFPSEGSNLTPAHHYNDFRFKTYAPVAFRYFRELFGIRPDDYLYSLCSEPLIELSNSGASGSLFYVSSDDEFIIKTVQHKEAEFLQKLLPGYYMNLNQNPRTLLPKFYGLYCVQAGGKNIRIVVMNNLLPRSVKMHMKYDLKGSTYKRRASQKEREKTLPTFKDLDFLQDIPDGLFLDADMYSALCKTLQRDCLVLQSFKIMDYSLLMSIHNMDHAQREPTSNDTQYSADTRRPAPQKALYSTAMESIQGEARRGGTVETEDHMGGIPARNNKGERLLLYIGIIDILQSYRFVKKLEHSWKALVHDGDTVSVHRPGFYAERFQRFMCNTVFKKIPLKPSPTKKFRSGPSFSRRSGPSGNSCTSQLMASGEHRAQVTTKAEVEPDVHLGRPDVLPQTPPLEEISEGSPVPGPSFSPVVGQPLQILNLSSTLEKLDVAESEFTH

The variants in one assay derive from B1. The experiment in a line: co-immunoprecipitation, Western blot quantification. Conditions: with partner chain of the complex shown; COS-7 cells; n = 4; parent: 100; read off a plot.
chain 1 S76G: the percent of parent is 51 % of WT. On the same count and under the same terms, with chain 1 S66A the figure was 71 % of WT. On the same count and under the same terms, the value for chain 1 S68A was 3 % of WT. As to chain 1 S85A, the percent of parent was 96 % of WT.

Turning to chain 1 S64A, the percent of parent was 95 % of WT. As for chain 1 S74G, the percent of parent is 42 % of WT. Still for that read-out and setting: the value for chain 1 T82A was 107 % of WT; that for chain 1 S84A was 100 % of WT; that for chain 1 S77A was 11 % of WT. On the same count and under the same terms, the value for chain 1 S90A was 130 % of WT. Still for that read-out and setting: with chain 1 S80A the figure was 79 % of WT; with chain 1 S71A, 3 % of WT.

Turning to chain 1 T72A, the percent of parent is 67 % of WT. As for chain 1 S70A, the percent of parent was 75 % of WT.

Another assay covers variants of B2. The assay is described as above. The note with it: with partner chain of the complex shown; COS-7 cells; n = 4; parent: 100; read off a plot.
In the case of chain 1 T82A, the percent of parent was 26 % of WT.

For the variant chain 1 S77A, the percent of parent was 65 % of WT. chain 1 S68A: the percent of parent is 2 % of WT.

On to chain 1 S85A, for which the percent of parent was 81 % of WT.

chain 1 T72A: the percent of parent is 90 % of WT. On the same count and under the same terms, with chain 1 S84A the figure was 43 % of WT. With chain 1 S74G, the percent of parent was 14 % of WT. The same measure, in the same setting: with chain 1 S71A the figure was 3 % of WT.

On to chain 1 S64A, for which the percent of parent is 83 % of WT. Consider chain 1 S80A, for which the percent of parent was 57 % of WT. Same read-out and setting: with chain 1 S70A the figure was 50 % of WT; with chain 1 S90A, 120 % of WT; with chain 1 S76G, 100 % of WT. Still for that read-out and setting: the value for chain 1 S66A was 49 % of WT.
